Laboratory results published in PMC12658102 (2025).
Blank lines part the entries; values can stand above or below the molecule they belong to.

Experiments:
[1] = target: TDP-43 C-terminal domain, wild type (human); assay: AUC; sedimentation velocity, 25 °C, 50,000 rpm, absorbance at 280 nm, solution without salt; WT CTD at 33, 58 and 107 µM; c(s) analysis and global Lamm equation modelling of the 58 and 107 µM data (SEDPHAT), monomer-dimer-tetramer model (steps: dimer to monomers; tetramer to dimers); monomer-tetramer model fits similarly
TDP-43 CTD F316A = assay: NMR chemical shift perturbation (15N CSP) as a function of protein concentration; settings: pH 6.1, without salt; 90 μM vs 20 μM protein; read off a plot
TDP-43 CTD L330A = assay: as above; settings: pH 6.1, without salt; 90 μM vs 20 μM protein; read off a plot
TDP-43 CTD M323A = assay: as above; settings: pH 6.1, without salt; 90 μM vs 20 μM protein; read off a plot
TDP-43 CTD M339A = assay: as above; settings: pH 6.1, without salt; 90 μM vs 20 μM protein; read off a plot
TDP-43 CTD Q343A = assay: as above; settings: pH 6.1, without salt; 90 μM vs 20 μM protein; read off a plot
TDP-43 CTD S317A = assay: as above; settings: pH 6.1, without salt; 90 μM vs 20 μM protein; read off a plot
TDP-43 CTD S342A = assay: as above; settings: pH 6.1, without salt; 90 μM vs 20 μM protein; read off a plot
[2] = target: TDP-43 CTD S→E S305C cross-linked (human) (UniProt Q13148); assay: AUC; dimer-tetramer; settings: domain or fragment
[3] = target: TDP-43 CTD S→E S305C cross-linked (human) (UniProt Q13148); assay: AUC; tetramer-octamer; settings: domain or fragment
[4] = target: TDP-43 CTD S→E S317C cross-linked (human) (UniProt Q13148); assay: AUC; dimer-tetramer, global Lamm equation modeling; settings: domain or fragment
[5] = target: TDP-43 CTD S→E S317C cross-linked (human) (UniProt Q13148); assay: AUC; dimer-tetramer, isotherm fit (dimer concentration units); settings: domain or fragment
[6] = target: the molecule itself; assay: analytical ultracentrifugation (SEDPHAT)

Molecule: TDP-43 C-terminal domain, wild type F316A
ratio to parent (TDP-43 CTD F316A): 0.27

Molecule: TDP-43 C-terminal domain, wild type L330A
ratio to parent (TDP-43 CTD L330A): 0.13

Molecule: TDP-43 C-terminal domain, wild type M323A
ratio to parent (TDP-43 CTD M323A): 0.19

Molecule: TDP-43 C-terminal domain, wild type M339A
ratio to parent (TDP-43 CTD M339A): 0.63

Molecule: TDP-43 C-terminal domain, wild type Q343A
ratio to parent (TDP-43 CTD Q343A): 1.2

Molecule: TDP-43 CTD S→E S305C cross-linked (from UniProt Q13148)
Kd [2]: 58 µM
Kd [3]: 4.7 µM

B1: TDP-43 CTD conserved region (peptide)
chain: NPAMMAAAQAALQSSWGMMGMLA
Kd [6]: 2400 µM

B2: TDP-43 dimer CTD conserved region (peptide)
chain: NPAMMAAAQAALQSSWGMMGMLA
Kd [6]: 2.7 µM

Results, then the molecule that gave them:

Kd,dim-tet (dimer-tetramer step) [1]: 2.7 µM
Kd,mon-dim (monomer-dimer step) [1]: 2400 µM
ceq (concentration for equal population of monomer and tetramer) [1]: 250 to 300 µM
stoichiometry N [1]: 4
Molecule: TDP-43 C-terminal domain, wild type (domain or fragment)

ratio to parent (TDP-43 CTD S317A): 1.2
Molecule: TDP-43 C-terminal domain, wild type S317A

ratio to parent (TDP-43 CTD S342A): 1.1
Molecule: TDP-43 C-terminal domain, wild type S342A

Kd [4]: 46 µM
Kd [5]: 45 µM
Molecule: TDP-43 CTD S→E S317C cross-linked (from UniProt Q13148)
